{
  "source": "paper PMC8567202",
  "about": "“Phosphoinositide-binding activity of Smad2 is essential for its function in TGF-β signaling” (The Journal of Biological Chemistry, 2021)",
  "molecules": {"B1": {"name": "Smad2 WT: bacterially expressed full-length Smad2 wild-type (protein)", "chain": "MSSILPFTPPVVKRLLGWKKSAGGSGGAGGGEQNGQEEKWCEKAVKSLVKKLKKTGRLDELEKAITTQNCNTKCVTIPSTCSEIWGLSTANTVDQWDTTGLYSFSEQTRSLDGRLQVSHRKGLPHVIYCRLWRWPDLHSHHELKAIENCEYAFNLKKDEVCVNPYHYQRVETPVLPPVLVPRHTEILTELPPLDDYTHSIPENTNFPAGIEPQSNYIPETPPPGYISEDGETSDQQLNQSMDTGSPAELSPTTLSPVNHSLDLQPVTYSEPAFWCSIAYYELNQRVGETFHASQPSLTVDGFTDPSNSERFCLGLLSNVNRNATVEMTRRHIGRGVRLYYIGGEVFAECLSDSAIFVQSPNCNQRYGWHPATVCKIPPGCNLKIFNNQEFAALLAQSVNQGFEAVYQLTRMCTIRMSFVKGWGAEYRRQTVTSTPCWIELHLNGPLQWLDKVLTQMGSPSVRCSSMS", "modifications": "left off: His6, N-terminal, state not stated", "notes": "bacterially expressed full-length Smad2 wild-type"}},
  "assay": "SPR membrane binding to POPC/POPS/PI(3)P vesicles",
  "conditions": "POPC/POPS/PI(3)P (77:20:3)",
  "source_text": "It has been generally thought that Smad2 and Smad3 are targeted to the activated TGF-β signaling complex by direct interaction with TβRI ([1], [2]) or via SARA ([7]). However, it has been shown that many cytosolic proteins that are targeted to membrane proteins or membrane-anchored signaling complexes have affinity for membrane lipids ([14]), phosphoinositides (PtdInsPs) in particular, and that their membrane recruitment is mediated by coincident lipid–protein and protein–protein interactions ([15], [16]). […] We thus measured the binding of bacterially expressed Smad2 to large unilamellar vesicles (LUVs) containing various lipids by surface plasmon resonance (SPR) analysis ([19], [20]). Lipid selectivity determined by SPR analysis is typically reported as the relative resonance unit (RU) values for different lipids at a given protein concentration ([21], [22]). […] We thus estimated RUmax for different lipid species by employing the highest protein concentration experimentally feasible (e.g., 1 μM) and determined RU/RUmax for different lipids at the protein concentration that allows robust comparison (e.g., 100 nM). Once the lipid selectivity has been determined by this semiquantitative approach, we then rigorously determined and compared Kd values for selected lipids for more accurate quantitative determination of lipid selectivity. […]",
  "data": [
    {"molecule": "B1", "values": [
      {"measurement": "RUmax", "setting": "1 μM Smad2", "result": "400 ± 20"},
      {"measurement": "Kd", "setting": "SPR, L1 chip, 23 °C, 20 mM Tris, pH 7.4, 0.16 M NaCl, average ±S.D., n = 3, read-out: Kd for lipid binding, PC/PS/PI(3)P", "result": "210 ± 34", "unit": "nM"}
    ]}
  ]
}
